T1: ACADVL (mouse), P50544
T1 chain: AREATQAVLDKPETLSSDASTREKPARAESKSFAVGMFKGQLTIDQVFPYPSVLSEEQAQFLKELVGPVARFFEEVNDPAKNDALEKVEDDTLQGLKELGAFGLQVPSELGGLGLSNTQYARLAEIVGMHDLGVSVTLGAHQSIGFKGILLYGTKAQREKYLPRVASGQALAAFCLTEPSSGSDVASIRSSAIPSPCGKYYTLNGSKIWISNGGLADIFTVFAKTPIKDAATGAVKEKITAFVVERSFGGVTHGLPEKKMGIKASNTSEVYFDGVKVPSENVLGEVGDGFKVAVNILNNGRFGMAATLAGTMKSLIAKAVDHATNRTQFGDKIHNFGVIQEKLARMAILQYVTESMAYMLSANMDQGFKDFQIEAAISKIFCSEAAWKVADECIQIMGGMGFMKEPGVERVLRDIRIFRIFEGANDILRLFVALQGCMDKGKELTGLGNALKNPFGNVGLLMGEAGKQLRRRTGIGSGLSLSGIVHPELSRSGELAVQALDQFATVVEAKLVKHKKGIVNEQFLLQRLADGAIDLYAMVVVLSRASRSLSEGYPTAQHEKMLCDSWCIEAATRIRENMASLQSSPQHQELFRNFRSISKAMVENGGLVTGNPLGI

B1: ACADVL, P50544 42-656 (natural protein)
chain: T1 chain

Experiments:
[1] = target: complex I from ndufs4-/- mouse (heart, kidney) (mouse) (UniProt Q91YT0); assay: cryo-EM structure; complex I purified whole from ndufs4-/- mouse heart, cross-linked twice with BS3 (0.25 mM during solubilisation, 2.5 mM before the grids), 0.05% DDM, PEGylated gold grids; focused classification into three classes
ACADVL (mouse), P50544 = target: T1, ACADVL (mouse), P50544; assay: as above; conditions: remark: other sources report otherwise

Chain of UniProt Q91YT0 (Q91YT0 whole entry, looked up, one chain of several): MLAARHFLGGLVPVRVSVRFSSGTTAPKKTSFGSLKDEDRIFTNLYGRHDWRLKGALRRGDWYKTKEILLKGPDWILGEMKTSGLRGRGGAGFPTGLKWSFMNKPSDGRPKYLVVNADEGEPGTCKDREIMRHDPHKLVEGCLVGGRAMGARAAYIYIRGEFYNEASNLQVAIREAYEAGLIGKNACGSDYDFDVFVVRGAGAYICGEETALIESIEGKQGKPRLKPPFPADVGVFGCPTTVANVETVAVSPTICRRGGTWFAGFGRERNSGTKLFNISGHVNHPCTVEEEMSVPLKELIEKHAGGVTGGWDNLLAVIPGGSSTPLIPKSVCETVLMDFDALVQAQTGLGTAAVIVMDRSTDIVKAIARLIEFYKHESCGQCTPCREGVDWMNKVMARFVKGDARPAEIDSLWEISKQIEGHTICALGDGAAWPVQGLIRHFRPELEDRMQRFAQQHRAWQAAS

Molecule | percent of the complex I particles that contain it [1] [%] | stoichiometry N (ACADVL (mouse), P50544)
assembly factor NDUFAF2 (natural protein) | 14 | –
B1 | – | 2

— paper PMC10897435
